{"source": "patent US6274553A", "about": "“Method for stabilizing peptides and freeze-dried medicinal compositions containing peptides obtained by using the method” (Japan Energy Corporation, priority 1997, dated 2001)", "molecules": {"B1": {"name": "hirudin variant HV1C3: Hirudin variant having the amino acid sequence shown by Sequence No. 1 (JP Laid-open No. 173798/1992) (protein)", "chain": "VVYTDCTESGQNLCLCEGSNVCGQGNKCILGSDGEKNQCVTGEGTPKPQSHNQGDFEPIPEDAYDE"}}, "key": {"[1]": {"assay": "Storage stability of lyophilized HV1C3 at 60° C., tartaric acid concentration (Experiment Example 4)", "assay_type": "physicochemical", "description": "Hirudin variant HV1C3 and purified saccharose were dissolved in purified water to a final concentration of 6 mg/ml (0.866 mM) and 1.6 mg/ml (4.7 mM), respectively. The resulting solution was divided into four equal portions. Three of these portions were adjusted to pH 5.5 using 5 mM of tartaric acid, 10 mM of tartaric acid, and 30 mM of tartaric acid, respectively. Mannitol was added to a solution without pH adjustment to a concentration of 10 mg/ml (55 mM). These solutions were filtered through a 0.22 μm membrane filter. The filtrates were filled into 6 ml vials in the amount of 1 ml for each vial. 50 such vials were prepared for each pH of the solution, 200 vials in total. All these 200 vials were lyophilized.\nThe lyophilized samples were stored in an incubator at 60° C. and removed from the incubator after 1, 2, 3, 4, 5, and 6 weeks, respectively. 1 ml of purified water was added to each vial removed. The amount (percentage) of the hirudin variant HV1C3 remaining in the lyophilized sample was determined in the same manner as in Experiment Example 1."}, "[2]": {"assay": "Amount of isomers in lyophilized HV1C3 stored at 60° C., saccharose/mannitol (Experiment Example 5)", "assay_type": "physicochemical", "conditions": "pH 5.5, 5 mM tartaric acid", "description": "In the same manner as in Experiment Example 1, hirudin variant HV1C3, purified saccharose, and mannitol were dissolved in purified water to a concentration of 6 mg/ml (0.86 mM) of hirudin variant HV1C3 and concentrations of purified saccharose and mannitol respectively shown in Table 6. The solution was adjusted to pH 5.5 using 5 mM tartaric acid to obtain a peptide solution. The peptide solutions for which the pH was adjusted and the peptide solution before pH adjustment were filtered through a 0.22 μm membrane filter. The filtrates were filled into 6 ml vials in the amount of 1 ml for each vial and lyophilized.\nThe lyophilized samples were stored in an incubator at 60° C. and removed from the incubator after 4 and 8 weeks, respectively. […] was added to each vial removed. Solutions further diluted 50-fold were subjected to liquid chromatography to measure a peak area percentage of isomers other than the hirudin variant HV1C3."}, "[3]": {"conditions": "tartaric acid 0 mM, without pH adjustment, mannitol 10 mg/ml, saccharose"}, "[4]": {"conditions": "tartaric acid 5 mM, pH 5.5, saccharose"}, "[5]": {"conditions": "tartaric acid 10 mM, pH 5.5, saccharose"}, "[6]": {"conditions": "tartaric acid 30 mM, pH 5.5, saccharose"}, "[7]": {"conditions": "no saccharose, mannitol 10 mg/ml"}, "[8]": {"conditions": "purified saccharose 1.6 mg/ml, mannitol 10 mg/ml"}, "[9]": {"conditions": "purified saccharose 1.6 mg/ml, no mannitol"}}, "data": [{"molecule": "B1", "values": [{"measurement": "Remaining peptide (%) 1 wk", "setting": "[1]; [3]", "value": 97.0, "unit": "%"}, {"measurement": "Remaining peptide (%) 2 wks", "setting": "[1]; [3]", "value": 94.0, "unit": "%"}, {"measurement": "Remaining peptide (%) 3 wks", "setting": "[1]; [3]", "value": 92.0, "unit": "%"}, {"measurement": "Remaining peptide (%) 4 wks", "setting": "[1]; [3]", "value": 91.0, "unit": "%"}, {"measurement": "Remaining peptide (%) 5 wks", "setting": "[1]; [3]", "value": 87.8, "unit": "%"}, {"measurement": "Remaining peptide (%) 6 wks", "setting": "[1]; [3]", "value": 86.5, "unit": "%"}, {"measurement": "Remaining peptide (%) 1 wk", "setting": "[1]; [4]", "value": 98.8, "unit": "%"}, {"measurement": "Remaining peptide (%) 2 wks", "setting": "[1]; [4]", "value": 98.6, "unit": "%"}, {"measurement": "Remaining peptide (%) 3 wks", "setting": "[1]; [4]", "value": 97.6, "unit": "%"}, {"measurement": "Remaining peptide (%) 4 wks", "setting": "[1]; [4]", "value": 97.5, "unit": "%"}, {"measurement": "Remaining peptide (%) 5 wks", "setting": "[1]; [4]", "value": 97.0, "unit": "%"}, {"measurement": "Remaining peptide (%) 6 wks", "setting": "[1]; [4]", "value": 96.9, "unit": "%"}, {"measurement": "Remaining peptide (%) 1 wk", "setting": "[1]; [5]", "value": 98.5, "unit": "%"}, {"measurement": "Remaining peptide (%) 2 wks", "setting": "[1]; [5]", "value": 98.1, "unit": "%"}, {"measurement": "Remaining peptide (%) 3 wks", "setting": "[1]; [5]", "value": 97.2, "unit": "%"}, {"measurement": "Remaining peptide (%) 4 wks", "setting": "[1]; [5]", "value": 96.9, "unit": "%"}, {"measurement": "Remaining peptide (%) 5 wks", "setting": "[1]; [5]", "value": 96.4, "unit": "%"}, {"measurement": "Remaining peptide (%) 6 wks", "setting": "[1]; [5]", "value": 96.1, "unit": "%"}, {"measurement": "Remaining peptide (%) 1 wk", "setting": "[1]; [6]", "value": 97.9, "unit": "%"}, {"measurement": "Remaining peptide (%) 2 wks", "setting": "[1]; [6]", "value": 96.8, "unit": "%"}, {"measurement": "Remaining peptide (%) 3 wks", "setting": "[1]; [6]", "value": 96.1, "unit": "%"}, {"measurement": "Remaining peptide (%) 4 wks", "setting": "[1]; [6]", "value": 94.7, "unit": "%"}, {"measurement": "Remaining peptide (%) 5 wks", "setting": "[1]; [6]", "value": 94.1, "unit": "%"}, {"measurement": "Remaining peptide (%) 6 wks", "setting": "[1]; [6]", "value": 93.5, "unit": "%"}, {"measurement": "The amount of isomers (%) 4 weeks", "setting": "[2]; [7]", "value": 6.93, "unit": "%"}, {"measurement": "The amount of isomers (%) 8 weeks", "setting": "[2]; [7]", "value": 7.99, "unit": "%"}, {"measurement": "The amount of isomers (%) 4 weeks", "setting": "[2]; no saccharose, no mannitol", "value": 5.72, "unit": "%"}, {"measurement": "The amount of isomers (%) 8 weeks", "setting": "[2]; no saccharose, no mannitol", "value": 6.13, "unit": "%"}, {"measurement": "The amount of isomers (%) 4 weeks", "setting": "[2]; [8]", "value": 7.23, "unit": "%"}, {"measurement": "The amount of isomers (%) 8 weeks", "setting": "[2]; [8]", "value": 8.58, "unit": "%"}, {"measurement": "The amount of isomers (%) 4 weeks", "setting": "[2]; [9]", "value": 4.90, "unit": "%"}, {"measurement": "The amount of isomers (%) 8 weeks", "setting": "[2]; [9]", "value": 5.00, "unit": "%"}]}]}
